T1: mouse TEAD4(210–427), as purified (SPR) (mouse), Q62296
T1 chain: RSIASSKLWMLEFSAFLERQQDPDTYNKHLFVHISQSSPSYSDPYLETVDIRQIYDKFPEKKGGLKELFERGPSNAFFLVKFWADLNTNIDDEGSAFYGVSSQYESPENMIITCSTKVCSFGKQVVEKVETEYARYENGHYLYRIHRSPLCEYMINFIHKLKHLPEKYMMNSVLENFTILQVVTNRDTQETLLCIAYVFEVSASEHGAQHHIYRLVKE


Assays:
Assay in all cases: SPR; GST-hTEAD1 and mTEAD4 covalently tethered (NHS/EDC) on CM5 chips, 2000–3000 RU; peptides as analytes, threefold dilutions, typically 30 µM top concentration; 10 mM HEPES, 150 mM NaCl, 0.05% Tween-20, pH 7.4, 0.3% DMSO, 20 °C; steady-state fit, 1:1 model
[1] = biological target: T1, mouse TEAD4(210–427), as purified (SPR) …
[2] = biological target: GST-hTEAD1(209–426) (human), P28347
[3] = biological target: GST-hTEAD1(209–426) (human) (UniProt P28347)

Kd [1] [µM] | Kd [2] [µM] | Kd [3] [µM] | Binder
> 100 | > 100 |  | DTWLQIKAA (modifications not checked) [isolated helix peptide 6 derived from the VGL4 two-helix motif 4, Q80V24 203-256]
> 100 | > 100 |  | SVDDHFAKALG (modifications not checked) [isolated helix peptide 5 derived from the VGL4 two-helix motif 4, Q80V24 203-256]
 |  | 1.4 | VGL4(203–256), full-length VGL4-derived TEAD binding sequence (peptide 1) (peptide) peptide: DPVVEEHFRRSLGKNYKEPEPAPNSVSITGSVDDHFAKALGDTWLQIKAAKDSA

Further lines, the binder ahead of its results:

Binder | Kd [1] [µM] | Kd [2] [µM] | Kd [3] [µM]
KEPEPAPNSVSITG (modifications not checked) [VGL4 intervening extended stretch peptide (peptide 3), Q80V24 203-256] | > 100 | > 100 | 
SVDDHFAKALGDTWLQIKAA (modifications not checked) [VGL4 C-terminal two-helix motif peptide (peptide 4, helices α2/α3), Q80V24 203-256] | 3.1 | 4.3 | 
DPVVEEHFRRSLGKNY (modifications not checked) [VGL4 N-terminal α-helix peptide (peptide 2, helix α1), Q80V24 203-256] | 21.8 | 19.4 | 
